Data reported in patent US20250179176A1, “ANTI-TIGIT ANTIBODIES AND USES OF THE SAME” (ARCUS BIOSCIENCES, INC., priority 2022, published 2025).

Conditions: in vivo

zimberelimab: antagonistic PD-1 antibody, immune checkpoint inhibitor
Any SAEs Leading to DC: 8 (21) n (%) | Any SAEs Leading to Study Drug Discontinuation: 9 (18.0) n (%) | Any SAEs, events: 30 n | Any SAEs, subjects: 18 (47.4) n (%) | Any TEAEs of Grade 3 or Higher, events: 41 n | Any TEAEs of Grade 3 or Higher, subjects: 20 (52.6) n (%) | Any TEAEs that are immune-related: 24 (48.0) n (%) | Any TEAEs, events: 271 n | Any TEAEs, subjects: 36 (94.7) n (%) | Grade ≥3 TEAE Acute respiratory failure, events: 0 n | Grade ≥3 TEAE Acute respiratory failure, subjects: 0 n (%) | Grade ≥3 TEAE Anaemia, events: 2 n | Grade ≥3 TEAE Anaemia, subjects: 2 (5.3) n (%) | Grade ≥3 TEAE Asthenia, events: 2 n | Grade ≥3 TEAE Asthenia, subjects: 2 (5.3) n (%) | Grade ≥3 TEAE Chronic obstructive pulmonary disease, events: 0 n | Grade ≥3 TEAE Chronic obstructive pulmonary disease, subjects: 0 n (%) | Grade ≥3 TEAE Dyspnoea, events: 3 n | Grade ≥3 TEAE Dyspnoea, subjects: 3 (7.9) n (%) | Grade ≥3 TEAE Fatigue, events: 0 n | Grade ≥3 TEAE Fatigue, subjects: 0 n (%) | Grade ≥3 TEAE Hyperglycaemia, events: 2 n | Grade ≥3 TEAE Hyperglycaemia, subjects: 2 (5.3) n (%) | Grade ≥3 TEAE Hyperkalaemia, events: 0 n | Grade ≥3 TEAE Hyperkalaemia, subjects: 0 n (%) | Grade ≥3 TEAE Hypertension, events: 0 n | Grade ≥3 TEAE Hypertension, subjects: 0 n (%) | Grade ≥3 TEAE Hypokalaemia, events: 3 n | Grade ≥3 TEAE Hypokalaemia, subjects: 3 (7.9) n (%) | Grade ≥3 TEAE Hypoxia, events: 1 n | Grade ≥3 TEAE Hypoxia, subjects: 1 (2.6) n (%) | Grade ≥3 TEAE Myocardial infarction, events: 1 n | Grade ≥3 TEAE Myocardial infarction, subjects: 1 (2.6) n (%) | Grade ≥3 TEAE Pericardial effusion, events: 1 n | Grade ≥3 TEAE Pericardial effusion, subjects: 1 (2.6) n (%) | Grade ≥3 TEAE Pleural effusion, events: 2 n | Grade ≥3 TEAE Pleural effusion, subjects: 2 (5.3) n (%) | Grade ≥3 TEAE Pneumonia, events: 2 n | Grade ≥3 TEAE Pneumonia, subjects: 2 (5.3) n (%) | Grade ≥3 TEAE Pneumonitis, events: 2 n | Grade ≥3 TEAE Pneumonitis, subjects: 2 (5.3) n (%) | Grade ≥3 TEAE Pulmonary embolism, events: 3 n | Grade ≥3 TEAE Pulmonary embolism, subjects: 3 (7.9) n (%) | Grade ≥3 TEAE Respiratory failure, events: 0 n | Grade ≥3 TEAE Respiratory failure, subjects: 0 n (%) | Grade ≥3 TEAE Sepsis, events: 0 n | Grade ≥3 TEAE Sepsis, subjects: 0 n (%) | Grade ≥3 TEAE Septic shock, events: 1 n | Grade ≥3 TEAE Septic shock, subjects: 1 (2.6) n (%) | Grade ≥3 TEAE Spinal compression fracture, events: 2 n | Grade ≥3 TEAE Spinal compression fracture, subjects: 2 (5.3) n (%) | Immune-related TEAE Acute respiratory failure: 0 n (%) | Immune-related TEAE Bronchospasm: 0 n (%) | Immune-related TEAE Bulbar palsy: 0 n (%) | Immune-related TEAE Colitis: 0 n (%) | Immune-related TEAE Contrast media reaction: 1 (2.0) n (%) | Immune-related TEAE Diabetes mellitus: 1 (2.0) n (%) | Immune-related TEAE Diabetic ketoacidosis: 1 (2.0) n (%) | Immune-related TEAE Drug eruption: 1 (2.0) n (%) | Immune-related TEAE Erythema: 1 (2.0) n (%) | Immune-related TEAE Eyelid oedema: 0 n (%) | Immune-related TEAE Flushing: 1 (2.0) n (%) | Immune-related TEAE Generalised oedema: 0 n (%) | Immune-related TEAE Hyperthyroidism: 1 (2.0) n (%) | Immune-related TEAE Hypothyroidism: 4 (8.0) n (%) | Immune-related TEAE Idiopathic urticaria: 0 n (%) | Immune-related TEAE Immune-mediated enterocolitis: 1 (2.0) n (%) | Immune-related TEAE Infusion related reaction: 0 n (%) | Immune-related TEAE Lichen planus: 0 n (%) | Immune-related TEAE Mouth ulceration: 0 n (%) | Immune-related TEAE Myocarditis: 0 n (%) | Immune-related TEAE Myositis: 1 (2.0) n (%) | Immune-related TEAE Pancreatitis: 0 n (%) | Immune-related TEAE Pneumonitis: 7 (14.0) n (%) | Immune-related TEAE Pneumonitis Grade ≥3: 3 (6) n (%) | Immune-related TEAE Pruritus: 8 (16.0) n (%) | Immune-related TEAE Rash: 6 (12.0) n (%) | Immune-related TEAE Rash maculo-papular: 1 (2.0) n (%) | Immune-related TEAE Rash pustular: 0) n (%) | Immune-related TEAE Respiratory failure: 1 (2.0) n (%) | Immune-related TEAE Rheumatoid arthritis: 0 n (%) | Immune-related TEAE Rhinitis allergic: 0 n (%) | Immune-related TEAE Seasonal allergy: 0 n (%) | Immune-related TEAE Stomatitis: 0 n (%) | Immune-related TEAE Thyroiditis: 0 n (%) | Immune-related TEAE Tracheal obstruction: 0 n (%) | Immune-related TEAE Type I diabetes mellitus: 1 (2.0) n (%) | Immune-related TEAE Urticaria: 0 n (%) | Immune-related TEAE Wheezing: 0 n (%) | Infusion-related reactions: 2 (4) n (%) | Rash: 6 (12) n (%) | SAE Anaemia, events: 0 n | SAE Anaemia, subjects: 0 n (%) | SAE Asthenia, events: 2 n | SAE Asthenia, subjects: 2 (5.3) n (%) | SAE Chronic obstructive pulmonary disease, events: 0 n | SAE Chronic obstructive pulmonary disease, subjects: 0 n (%) | SAE Myocardial infarction, events: 1 n | SAE Myocardial infarction, subjects: 1 (2.6) n (%) | SAE Pleural effusion, events: 3 n | SAE Pleural effusion, subjects: 2 (5.3) n (%) | SAE Pneumonia, events: 2 n | SAE Pneumonia, subjects: 2 (5.3) n (%) | SAE Pneumonitis, events: 1 n | SAE Pneumonitis, subjects: 1 (2.6) n (%) | SAE Pulmonary embolism, events: 3 n | SAE Pulmonary embolism, subjects: 3 (7.9) n (%) | SAE Septic shock, events: 1 n | SAE Septic shock, subjects: 1 (2.6) n (%) | SAE Spinal compression fracture, events: 2 n | SAE Spinal compression fracture, subjects: 2 (5.3) n (%) | TEAE Constipation, events: 6 n | TEAE Constipation, subjects: 4 (10.5) n (%) | TEAE Decreased appetite, events: 6 n | TEAE Decreased appetite, subjects: 6 (15.8) n (%) | TEAE Diarrhoea, events: 7 n | TEAE Diarrhoea, subjects: 6 (15.8) n (%) | TEAE Dyspnoea, events: 9 n | TEAE Dyspnoea, subjects: 7 (18.4) n (%) | TEAE Fatiguc, events: 11 n | TEAE Fatiguc, subjects: 11 (28.9) n (%) | TEAE Nausea, events: 7 n | TEAE Nausea, subjects: 7 (18.4) n (%) | TEAE Pneumonia, events: 2 n | TEAE Pneumonia, subjects: 2 (5.3) n (%) | TEAE Pneumonitis, events: 7 n | TEAE Pneumonitis, subjects: 6 (15.8) n (%) | TEAE Pruritus, events: 6 n | TEAE Pruritus, subjects: 6 (15.8) n (%) | TEAE Pyrexia, events: 4 n | TEAE Pyrexia, subjects: 4 (10.5) n (%) | TEAE Rash, events: 8 n | TEAE Rash, subjects: 3 (7.9) n (%) | TEAE Vomiting, events: 3 n | TEAE Vomiting, subjects: 3 (7.9) n (%) | TEAEs leading to study drug mod. int.: 12 (24.0) n (%) | TEAEs leading to study drug mod. int., related to study treatment: 7 (14.0) n (%) | TEAEs leading to zim discon., related to zim: 9 (18.0) n (%) | TEAEs leading to zim mod./int., related to zim: 7 (14.0) n (%) | grade 3 treatment-emergent adverse events: 58% | tolerability: well tolerated
